Data taken from patent publication US11965039B2, “Compstatin analogues and their medical uses” (priority 2018, dated 2024).
Positions of bridges follow the written chain, without caps; N, C: chain ends. Non-standard residues stand in square brackets, D forms with d. Sar = CNCC(=O)O

B1: Compound 32 (peptide)
peptide: Ac-SEICIWQDWGEHRCTEA-NH2
modifications: disulfide 4-14
SMILES: CC[C@H](C)[C@@H]1NC(=O)[C@@H](NC(=O)[C@@H](NC(=O)[C@H](CCC(=O)O)NC(=O)[C@H](CO)NC(C)=O)[C@@H](C)CC)CSSC[C@@H](C(=O)N[C@H](C(=O)N[C@@H](CCC(=O)O)C(=O)N[C@@H](C)C(N)=O)[C@@H](C)O)NC(=O)[C@H](CCCNC(=N)N)NC(=O)[C@H](Cc2c[nH]cn2)NC(=O)[C@H](CCC(=O)O)NC(=O)CNC(=O)[C@H](Cc2c[nH]c3ccccc23)NC(=O)[C@H](CC(=O)O)NC(=O)[C@H](CCC(N)=O)NC(=O)[C@H](Cc2c[nH]c3ccccc23)NC1=O
B2: Compound 33 (peptide)
peptide: Ac-EICIWQDWGEHRCTE-NH2
modifications: disulfide 3-13
SMILES: CC[C@H](C)[C@@H]1NC(=O)[C@@H](NC(=O)[C@@H](NC(=O)[C@H](CCC(=O)O)NC(C)=O)[C@@H](C)CC)CSSC[C@@H](C(=O)N[C@H](C(=O)N[C@@H](CCC(=O)O)C(N)=O)[C@@H](C)O)NC(=O)[C@H](CCCNC(=N)N)NC(=O)[C@H](Cc2c[nH]cn2)NC(=O)[C@H](CCC(=O)O)NC(=O)CNC(=O)[C@H](Cc2c[nH]c3ccccc23)NC(=O)[C@H](CC(=O)O)NC(=O)[C@H](CCC(N)=O)NC(=O)[C@H](Cc2c[nH]c3ccccc23)NC1=O
B3: Compound 45 (peptide)
peptide: Ac-EGSAFCIWQDWGEHRC[Sar]E-NH2
modifications: disulfide 6-16
SMILES: CC[C@H](C)[C@@H]1NC(=O)[C@@H](NC(=O)[C@H](Cc2ccccc2)NC(=O)[C@H](C)NC(=O)[C@H](CO)NC(=O)CNC(=O)[C@H](CCC(=O)O)NC(C)=O)CSSC[C@@H](C(=O)N(C)CC(=O)N[C@@H](CCC(=O)O)C(N)=O)NC(=O)[C@H](CCCNC(=N)N)NC(=O)[C@H](Cc2c[nH]cn2)NC(=O)[C@H](CCC(=O)O)NC(=O)CNC(=O)[C@H](Cc2c[nH]c3ccccc23)NC(=O)[C@H](CC(=O)O)NC(=O)[C@H](CCC(N)=O)NC(=O)[C@H](Cc2c[nH]c3ccccc23)NC1=O
B4: Compound 38 (peptide)
peptide: Ac-EKGICIWQDWGEHRCTEKP-NH2
modifications: disulfide 5-15
SMILES: CC[C@H](C)[C@H](NC(=O)CNC(=O)[C@H](CCCCN)NC(=O)[C@H](CCC(=O)O)NC(C)=O)C(=O)N[C@H]1CSSC[C@@H](C(=O)N[C@H](C(=O)N[C@@H](CCC(=O)O)C(=O)N[C@@H](CCCCN)C(=O)N2CCC[C@H]2C(N)=O)[C@@H](C)O)NC(=O)[C@H](CCCNC(=N)N)NC(=O)[C@H](Cc2c[nH]cn2)NC(=O)[C@H](CCC(=O)O)NC(=O)CNC(=O)[C@H](Cc2c[nH]c3ccccc23)NC(=O)[C@H](CC(=O)O)NC(=O)[C@H](CCC(N)=O)NC(=O)[C@H](Cc2c[nH]c3ccccc23)NC(=O)[C@H]([C@@H](C)CC)NC1=O
B5: Compound 44 (peptide)
peptide: Ac-EGSAICIWQDWGEHRC[Sar]EGE-NH2
modifications: disulfide 6-16
SMILES: CC[C@H](C)[C@H](NC(=O)[C@H](C)NC(=O)[C@H](CO)NC(=O)CNC(=O)[C@H](CCC(=O)O)NC(C)=O)C(=O)N[C@H]1CSSC[C@@H](C(=O)N(C)CC(=O)N[C@@H](CCC(=O)O)C(=O)NCC(=O)N[C@@H](CCC(=O)O)C(N)=O)NC(=O)[C@H](CCCNC(=N)N)NC(=O)[C@H](Cc2c[nH]cn2)NC(=O)[C@H](CCC(=O)O)NC(=O)CNC(=O)[C@H](Cc2c[nH]c3ccccc23)NC(=O)[C@H](CC(=O)O)NC(=O)[C@H](CCC(N)=O)NC(=O)[C@H](Cc2c[nH]c3ccccc23)NC(=O)[C@H]([C@@H](C)CC)NC1=O
B6: Compound 39 (peptide)
peptide: Ac-ICIWQDWGEHRCTEGK-NH2
modifications: disulfide 2-12
SMILES: CC[C@H](C)[C@H](NC(C)=O)C(=O)N[C@H]1CSSC[C@@H](C(=O)N[C@H](C(=O)N[C@@H](CCC(=O)O)C(=O)NCC(=O)N[C@@H](CCCCN)C(N)=O)[C@@H](C)O)NC(=O)[C@H](CCCNC(=N)N)NC(=O)[C@H](Cc2c[nH]cn2)NC(=O)[C@H](CCC(=O)O)NC(=O)CNC(=O)[C@H](Cc2c[nH]c3ccccc23)NC(=O)[C@H](CC(=O)O)NC(=O)[C@H](CCC(N)=O)NC(=O)[C@H](Cc2c[nH]c3ccccc23)NC(=O)[C@H]([C@@H](C)CC)NC1=O
B7: Compound 36 (peptide)
peptide: Ac-ESEICIWQDWGEHRCEGE-NH2
modifications: disulfide 5-15
SMILES: CC[C@H](C)[C@@H]1NC(=O)[C@@H](NC(=O)[C@@H](NC(=O)[C@H](CCC(=O)O)NC(=O)[C@H](CO)NC(=O)[C@H](CCC(=O)O)NC(C)=O)[C@@H](C)CC)CSSC[C@@H](C(=O)N[C@@H](CCC(=O)O)C(=O)NCC(=O)N[C@@H](CCC(=O)O)C(N)=O)NC(=O)[C@H](CCCNC(=N)N)NC(=O)[C@H](Cc2c[nH]cn2)NC(=O)[C@H](CCC(=O)O)NC(=O)CNC(=O)[C@H](Cc2c[nH]c3ccccc23)NC(=O)[C@H](CC(=O)O)NC(=O)[C@H](CCC(N)=O)NC(=O)[C@H](Cc2c[nH]c3ccccc23)NC1=O
B8: Compound 31 (peptide)
peptide: Ac-ESEICIWQDWGEHRCT-NH2
modifications: disulfide 5-15
SMILES: CC[C@H](C)[C@@H]1NC(=O)[C@@H](NC(=O)[C@@H](NC(=O)[C@H](CCC(=O)O)NC(=O)[C@H](CO)NC(=O)[C@H](CCC(=O)O)NC(C)=O)[C@@H](C)CC)CSSC[C@@H](C(=O)N[C@H](C(N)=O)[C@@H](C)O)NC(=O)[C@H](CCCNC(=N)N)NC(=O)[C@H](Cc2c[nH]cn2)NC(=O)[C@H](CCC(=O)O)NC(=O)CNC(=O)[C@H](Cc2c[nH]c3ccccc23)NC(=O)[C@H](CC(=O)O)NC(=O)[C@H](CCC(N)=O)NC(=O)[C@H](Cc2c[nH]c3ccccc23)NC1=O
B9: Compound 41 (peptide)
peptide: Ac-SAICIWQDWGEHRC[Sar]E-NH2
modifications: disulfide 4-14
SMILES: CC[C@H](C)[C@H](NC(=O)[C@H](C)NC(=O)[C@H](CO)NC(C)=O)C(=O)N[C@H]1CSSC[C@@H](C(=O)N(C)CC(=O)N[C@@H](CCC(=O)O)C(N)=O)NC(=O)[C@H](CCCNC(=N)N)NC(=O)[C@H](Cc2c[nH]cn2)NC(=O)[C@H](CCC(=O)O)NC(=O)CNC(=O)[C@H](Cc2c[nH]c3ccccc23)NC(=O)[C@H](CC(=O)O)NC(=O)[C@H](CCC(N)=O)NC(=O)[C@H](Cc2c[nH]c3ccccc23)NC(=O)[C@H]([C@@H](C)CC)NC1=O
B10: Compound 37 (peptide)
peptide: Ac-KEKICIWQDWGEHRCTEKE-NH2
modifications: disulfide 5-15
SMILES: CC[C@H](C)[C@@H]1NC(=O)[C@@H](NC(=O)[C@@H](NC(=O)[C@H](CCCCN)NC(=O)[C@H](CCC(=O)O)NC(=O)[C@H](CCCCN)NC(C)=O)[C@@H](C)CC)CSSC[C@@H](C(=O)N[C@H](C(=O)N[C@@H](CCC(=O)O)C(=O)N[C@@H](CCCCN)C(=O)N[C@@H](CCC(=O)O)C(N)=O)[C@@H](C)O)NC(=O)[C@H](CCCNC(=N)N)NC(=O)[C@H](Cc2c[nH]cn2)NC(=O)[C@H](CCC(=O)O)NC(=O)CNC(=O)[C@H](Cc2c[nH]c3ccccc23)NC(=O)[C@H](CC(=O)O)NC(=O)[C@H](CCC(N)=O)NC(=O)[C@H](Cc2c[nH]c3ccccc23)NC1=O
B11: Compound 40 (peptide)
peptide: Ac-GSAICIWQDWGEHRC[Sar]E-NH2
modifications: disulfide 5-15
SMILES: CC[C@H](C)[C@H](NC(=O)[C@H](C)NC(=O)[C@H](CO)NC(=O)CNC(C)=O)C(=O)N[C@H]1CSSC[C@@H](C(=O)N(C)CC(=O)N[C@@H](CCC(=O)O)C(N)=O)NC(=O)[C@H](CCCNC(=N)N)NC(=O)[C@H](Cc2c[nH]cn2)NC(=O)[C@H](CCC(=O)O)NC(=O)CNC(=O)[C@H](Cc2c[nH]c3ccccc23)NC(=O)[C@H](CC(=O)O)NC(=O)[C@H](CCC(N)=O)NC(=O)[C@H](Cc2c[nH]c3ccccc23)NC(=O)[C@H]([C@@H](C)CC)NC1=O
B12: Compound 34 (peptide)
peptide: Ac-EICIWQDWGEHRCTEGE-NH2
modifications: disulfide 3-13
SMILES: CC[C@H](C)[C@@H]1NC(=O)[C@@H](NC(=O)[C@@H](NC(=O)[C@H](CCC(=O)O)NC(C)=O)[C@@H](C)CC)CSSC[C@@H](C(=O)N[C@H](C(=O)N[C@@H](CCC(=O)O)C(=O)NCC(=O)N[C@@H](CCC(=O)O)C(N)=O)[C@@H](C)O)NC(=O)[C@H](CCCNC(=N)N)NC(=O)[C@H](Cc2c[nH]cn2)NC(=O)[C@H](CCC(=O)O)NC(=O)CNC(=O)[C@H](Cc2c[nH]c3ccccc23)NC(=O)[C@H](CC(=O)O)NC(=O)[C@H](CCC(N)=O)NC(=O)[C@H](Cc2c[nH]c3ccccc23)NC1=O
B13: Compound 35 (peptide)
peptide: Ac-EGEICIWQDWGEHRCEGE-NH2
modifications: disulfide 5-15
SMILES: CC[C@H](C)[C@@H]1NC(=O)[C@@H](NC(=O)[C@@H](NC(=O)[C@H](CCC(=O)O)NC(=O)CNC(=O)[C@H](CCC(=O)O)NC(C)=O)[C@@H](C)CC)CSSC[C@@H](C(=O)N[C@@H](CCC(=O)O)C(=O)NCC(=O)N[C@@H](CCC(=O)O)C(N)=O)NC(=O)[C@H](CCCNC(=N)N)NC(=O)[C@H](Cc2c[nH]cn2)NC(=O)[C@H](CCC(=O)O)NC(=O)CNC(=O)[C@H](Cc2c[nH]c3ccccc23)NC(=O)[C@H](CC(=O)O)NC(=O)[C@H](CCC(N)=O)NC(=O)[C@H](Cc2c[nH]c3ccccc23)NC1=O
B14: Compound 42 (peptide)
peptide: Ac-SAICIWQDWGEHRCTEG-NH2
modifications: disulfide 4-14
SMILES: CC[C@H](C)[C@H](NC(=O)[C@H](C)NC(=O)[C@H](CO)NC(C)=O)C(=O)N[C@H]1CSSC[C@@H](C(=O)N[C@H](C(=O)N[C@@H](CCC(=O)O)C(=O)NCC(N)=O)[C@@H](C)O)NC(=O)[C@H](CCCNC(=N)N)NC(=O)[C@H](Cc2c[nH]cn2)NC(=O)[C@H](CCC(=O)O)NC(=O)CNC(=O)[C@H](Cc2c[nH]c3ccccc23)NC(=O)[C@H](CC(=O)O)NC(=O)[C@H](CCC(N)=O)NC(=O)[C@H](Cc2c[nH]c3ccccc23)NC(=O)[C@H]([C@@H](C)CC)NC1=O

molecular target: Human C3 (Complement tech cat #A113c) (human, UniProt P01024 23-1663); assay: cell-based or functional assay
Sequence (P01024 23-1663 limits assumed): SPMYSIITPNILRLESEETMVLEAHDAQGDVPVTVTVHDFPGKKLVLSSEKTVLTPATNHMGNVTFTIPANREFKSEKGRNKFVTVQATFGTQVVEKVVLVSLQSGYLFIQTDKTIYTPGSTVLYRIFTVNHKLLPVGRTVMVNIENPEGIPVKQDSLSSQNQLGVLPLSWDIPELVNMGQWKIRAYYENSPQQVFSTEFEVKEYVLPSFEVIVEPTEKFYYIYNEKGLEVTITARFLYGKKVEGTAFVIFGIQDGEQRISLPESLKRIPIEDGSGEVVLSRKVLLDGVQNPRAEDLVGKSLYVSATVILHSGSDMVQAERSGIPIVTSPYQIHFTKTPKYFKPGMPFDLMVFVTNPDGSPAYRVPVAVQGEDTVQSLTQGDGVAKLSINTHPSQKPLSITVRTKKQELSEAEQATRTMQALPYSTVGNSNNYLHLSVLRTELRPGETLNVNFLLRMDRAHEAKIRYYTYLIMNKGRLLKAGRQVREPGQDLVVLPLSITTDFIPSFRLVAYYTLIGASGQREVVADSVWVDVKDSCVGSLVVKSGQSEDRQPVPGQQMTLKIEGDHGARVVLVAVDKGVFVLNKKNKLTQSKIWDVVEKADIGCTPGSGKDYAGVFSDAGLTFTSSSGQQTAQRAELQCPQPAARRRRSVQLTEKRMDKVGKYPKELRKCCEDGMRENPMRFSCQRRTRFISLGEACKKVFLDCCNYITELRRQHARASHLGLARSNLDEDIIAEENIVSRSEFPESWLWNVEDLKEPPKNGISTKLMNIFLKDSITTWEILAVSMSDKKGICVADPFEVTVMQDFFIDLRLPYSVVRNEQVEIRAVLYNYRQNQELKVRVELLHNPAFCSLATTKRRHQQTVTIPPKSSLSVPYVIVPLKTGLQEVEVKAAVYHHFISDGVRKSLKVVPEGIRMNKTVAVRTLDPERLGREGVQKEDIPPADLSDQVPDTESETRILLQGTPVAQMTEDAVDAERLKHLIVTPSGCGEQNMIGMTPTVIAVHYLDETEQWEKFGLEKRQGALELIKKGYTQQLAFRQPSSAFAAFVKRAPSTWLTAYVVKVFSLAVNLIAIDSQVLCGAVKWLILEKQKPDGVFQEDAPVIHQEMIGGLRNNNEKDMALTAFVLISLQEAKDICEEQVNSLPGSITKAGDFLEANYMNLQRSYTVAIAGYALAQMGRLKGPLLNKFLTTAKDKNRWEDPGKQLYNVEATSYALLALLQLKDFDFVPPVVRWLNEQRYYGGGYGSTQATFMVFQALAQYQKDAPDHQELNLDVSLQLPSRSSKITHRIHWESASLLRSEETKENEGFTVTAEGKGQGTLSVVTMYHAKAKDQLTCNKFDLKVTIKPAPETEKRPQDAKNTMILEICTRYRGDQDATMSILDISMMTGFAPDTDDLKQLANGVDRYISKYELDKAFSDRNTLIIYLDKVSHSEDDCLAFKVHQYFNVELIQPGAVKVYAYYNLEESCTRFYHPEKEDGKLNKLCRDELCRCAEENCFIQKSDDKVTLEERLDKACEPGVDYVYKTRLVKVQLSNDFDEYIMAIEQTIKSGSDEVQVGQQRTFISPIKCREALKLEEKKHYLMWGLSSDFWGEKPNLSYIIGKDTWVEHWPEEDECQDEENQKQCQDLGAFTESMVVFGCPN

B1 and B2 cannot be ordered by “inhibition of hemolysis IC50” value: < 100 nM for the first, < 100 nM for the second.

B3 and B4 cannot be ordered by “inhibition of hemolysis IC50” value: < 100 nM for the first, < 250 nM for the second.

B5 and B6 cannot be ordered by “inhibition of hemolysis IC50” value: < 250 nM for the first, < 100 nM for the second.

B7 and B8 cannot be ordered by “inhibition of hemolysis IC50” value: < 250 nM for the first, < 100 nM for the second.

B9 and B10 cannot be ordered by “inhibition of hemolysis IC50” value: < 250 nM for the first, < 250 nM for the second.

B11 and B12 cannot be ordered by “inhibition of hemolysis IC50” value: < 250 nM for the first, < 250 nM for the second.

B13 and B14 cannot be ordered by “inhibition of hemolysis IC50” value: < 500 nM for the first, < 250 nM for the second.
